These results are taken from publication PMC9307980, “High-Affinity Single-Domain Antibodies for Analyzing Human Apo- and Holo-Transferrin” (Acta Naturae, 2022).

One assay deals with T1, apo-Transferrin human (Homo sapiens, UniProt P02787).
T1 construct: human transferrin (serotransferrin), iron-free form, commercial preparation; Iron-free form of transferrin; same polypeptide as holo-Tf; also called apo-Tf; source: bought: Sigma-Aldrich
The assay is described as follows: ITC; in solution, PBS pH 7.4, MicroCal PEAQ-ITC; fitting model: sequential binding sites, number of sites 2. To be noted: both partners purified. (ITC needs no label: the signal is the heat of the interaction.)

Another assay addresses T2, holo-Transferrin human (Homo sapiens, UniProt P02787).
T2 construct: human transferrin (serotransferrin), iron-saturated form, commercial preparation; same polypeptide as apo-Tf; also called holo-Tf; source: bought: Sigma-Aldrich
The assay is described as above. To be noted: both partners purified.

T2 sequence (P02787 20-698): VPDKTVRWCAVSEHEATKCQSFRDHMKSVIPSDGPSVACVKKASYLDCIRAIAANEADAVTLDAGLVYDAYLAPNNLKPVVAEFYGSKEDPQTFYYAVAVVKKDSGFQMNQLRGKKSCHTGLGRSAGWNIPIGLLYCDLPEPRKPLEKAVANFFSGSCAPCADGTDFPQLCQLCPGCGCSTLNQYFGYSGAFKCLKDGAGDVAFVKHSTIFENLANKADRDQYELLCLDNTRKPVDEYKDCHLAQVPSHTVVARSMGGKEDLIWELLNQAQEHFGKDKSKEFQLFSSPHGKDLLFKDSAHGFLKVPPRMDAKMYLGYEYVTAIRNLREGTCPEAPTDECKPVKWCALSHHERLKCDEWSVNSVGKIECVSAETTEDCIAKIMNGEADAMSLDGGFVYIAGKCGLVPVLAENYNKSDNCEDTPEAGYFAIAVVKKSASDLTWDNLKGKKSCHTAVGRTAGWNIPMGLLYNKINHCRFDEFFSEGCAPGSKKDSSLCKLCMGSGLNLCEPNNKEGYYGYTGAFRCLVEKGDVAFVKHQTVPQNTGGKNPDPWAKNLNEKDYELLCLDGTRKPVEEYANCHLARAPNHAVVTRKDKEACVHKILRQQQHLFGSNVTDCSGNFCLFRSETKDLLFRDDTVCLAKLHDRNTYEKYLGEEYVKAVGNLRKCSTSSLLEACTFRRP
T1 sequence (P02787 20-698): as above

B1: aTf1 nanobody (anti-human transferrin single-domain antibody) (VHH)
VHH: QVQLVESGGGLVQPGGSLTLSCAASGFTFSTYAMKWVRQAPGMGLEYVASINNGGTSTFYSASVKGRFTISRDNAKNTLYLQLNSLKTEDTAMYYCARINEYSTRGQGTQVTVSS
notes: variable domain of aTf1; HA-tag and His-tag follow it; source: generated in the bacterial periplasm, isolated and purified
Take B1: the entries for the “KD1 (sequential binding sites, site 1)” value with apo-Transferrin human and with holo-Transferrin human were roughly 99.4 nM and roughly 0.44 nM, respectively. Moreover, in the assay with holo-Transferrin human, the “KD2 (sequential binding sites, site 2)” value was roughly 1.44 nM.

B2: aTf2 nanobody (anti-human transferrin single-domain antibody) (VHH)
VHH: QVQLVESGGGSVQAGGSLRLSCAVSGYMYSTNCMGWFRQAPGKEREGVAAIYTGGGSTYYPDSVKGRFTISQDNAKNTVYLQMNSLKPEDTAMYYCAAMRHCPYGGNWDHPVNYLGQGTQVTVSS
notes: variable domain of aTf2; long CDR3, cysteines in CDR1 and CDR3; HA-tag and His-tag follow it; source: generated in the bacterial periplasm, isolated and purified
B2: in the assay with apo-Transferrin human, the “KD1 (sequential binding sites, site 1)” value was roughly 0.82 nM and the “KD2 (sequential binding sites, site 2)” value was roughly 14.5 nM. In addition, in the assay with holo-Transferrin human, the “KD1 (sequential binding sites, site 1)” value was roughly 0.94 nM and the “KD2 (sequential binding sites, site 2)” value is roughly 0.75 nM.
